Here are results for 4 variants from IntAct's records for PubMed 30354839.

Sequences and labels used below:
B1: RNA-binding protein Raly (Homo sapiens), Q9UKM9 (parent)
chain: MSLKLQASNVTNKNDPKSINSRVFIGNLNTALVKKSDVETIFSKYGRVAGCSVHKGYAFVQYSNERHARAAVLGENGRVLAGQTLDINMAGEPKPDRPKGLKRAASAIYSGYIFDYDYYRDDFYDRLFDYRGRLSPVPVPRAVPVKRPRVTVPLVRRVKTNVPVKLFARSTAVTTSSAKIKLKSSELQAIKTELTQIKSNIDALLSRLEQIAAEQKANPDGKKKGDGGGAGGGGGGGGSGGGGSGGGGGGGSSRPPAPQENTTSEAGLPQGEARTRDDGDEEGLLTHSEEELEHSQDTDADDGALQ
B2: RNA-binding protein FUS (Homo sapiens), P35637 (parent)
chain: MASNDYTQQATQSYGAYPTQPGQGYSQQSSQPYGQQSYSGYSQSTDTSGYGQSSYSSYGQSQNTGYGTQSTPQGYGSTGGYGSSQSSQSSYGQQSSYPGYGQQPAPSSTSGSYGSSSQSSSYGQPQSGSYSQQPSYGGQQQSYGQQQSYNPPQGYGQQNQYNSSSGGGGGGGGGGNYGQDQSSMSSGGGSGGGYGNQDQSGGGGSGGYGQQDRGGRGRGGSGGGGGGGGGGYNRSSGGYEPRGRGGGRGGRGGMGGSDRGGFNKFGGPRDQGSRHDSEQDNSDNNTIFVQGLGENVTIESVADYFKQIGIIKTNKKTGQPMINLYTDRETGKLKGEATVSFDDPPSAKAAIDWFDGKEFSGNPIKVSFATRRADFNRGGGNGRGGRGRGGPMGRGGYGGGGSGGGGRGGFPSGGGGGGGQQRAGDWKCPNPTCENMNFSWRNECNQCKAPKPDGPGGGPGGSHMGGNYGDDRRGGRGGYDRGGYRGRGGDRGGFRGGRGGGDRGGFGPGKMDSRGEHRQDRRERPY

In the assay “fus_human FUS, P35637” the parent is B1. The following applies: with fus_human FUS.
The assay “raly_mouse Raly, Q64012” covers variants of B2. The following applies: with raly_mouse Raly.
In the assay “raly_human RALY, Q9UKM9” the parent is B2. The note with it: with raly_human RALY.

Sequence of raly_mouse Raly, Q64012 (Q64012 whole entry): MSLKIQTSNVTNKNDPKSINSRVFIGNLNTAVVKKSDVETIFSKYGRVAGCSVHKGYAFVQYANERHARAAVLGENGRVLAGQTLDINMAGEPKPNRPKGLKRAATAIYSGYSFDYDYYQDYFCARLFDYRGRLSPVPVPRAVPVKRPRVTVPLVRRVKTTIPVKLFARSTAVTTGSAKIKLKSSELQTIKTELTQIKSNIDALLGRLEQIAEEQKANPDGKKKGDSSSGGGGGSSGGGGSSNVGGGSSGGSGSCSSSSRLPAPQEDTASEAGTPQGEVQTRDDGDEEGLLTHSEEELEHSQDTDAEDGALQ

Regarding P148A;R149A, in the assay with fus_human FUS, P35637, the “effect of a mutation on the interaction” value is recorded as “with no effect”. With MASNDYTQQATQSYGAYPTQPGQGYSQQSSQPYGQQSYSGYSQSTDTSGYGQSSYSSYGQSQNTGYGTQSTPQGYGSTGGYGSSQSSQSSYGQQSSYPGYGQQPAPSSTSGSYGSSSQSSSYGQPQSGSYSQQPSYGGQQQSYGQQQSYNPPQGYGQQNQYNSSSGGGGGGGGGGNYGQDQSSMSSGGGSGGGYGNQDQSGGGGSGGYGQQDRGGRGRGGSGGGGGGGGGGYNRSSGGYEPRGRGGGRGGRGGMGGSDRGGFNKFGGPRDQGSRHDSEQDNSDNNTIFVQGLGENVTIESVADYFKQIGIIKTNKKTGQPMINLYTDRETGKLKGEATVSFDDPPSAKAAIDWFDGKEFSGNPIKVSFATRRADFNRGGGNGRGGRGRGGPMGRGGYGGGGSGGGGRGGFPSGGGGGGGQQRAGDWKCPNPTCENMNFSWRNECNQCKAPKPDGPGGGPGGSHMGGNYGDDRRGGRGGYDRGGYRGRGGDRGGFRGGRGGGDRGGFGPGKMDSRGEHRQDHRERPY [R521H], the “effect of a mutation on the interaction” value with raly_mouse Raly, Q64012 is given as “with no effect”; with raly_human RALY, Q9UKM9, “with no effect”. With MASNDYTQQATQSYGAYPTQPGQGYSQQSSQPYGQQSYSGYSQSTDTSGYGQSSYSSYGQSQNTGYGTQSTPQGYGSTGGYGSSQSSQSSYGQQSSYPGYGQQPAPSSTSGSYGSSSQSSSYGQPQSGSYSQQPSYGGQQQSYGQQQSYNPPQGYGQQNQYNSSSGGGGGGGGGGNYGQDQSSMSSGGGSGGGYGNQDQSGGGGSGGYGQQDRGGRGRGGSGGGGGGGGGGYNRSSGGYEPRGRGGGRGGRGGMGGSDRGGFNKFGGPRDQGSRHDSEQDNSDNNTIFVQGLGENVTIESVADYFKQIGIIKTNKKTGQPMINLYTDRETGKLKGEATVSFDDPPSAKAAIDWFDGKEFSGNPIKVSFATRRADFNRGGGNGRGGRGRGGPMGRGGYGGGGSGGGGRGGFPSGGGGGGGQQRAGDWKCPNPTCENMNFSWRNECNQCKAPKPDGPGGGPGGSHMGGNYGDDRRGGRGGYDRGGYRGRGGDRGGFRGGRGGGDRGGFGPGKMDSRGEHRQDCRERPY [R521C], the “effect of a mutation on the interaction” value is reported as “with no effect” in the assay with raly_mouse Raly, Q64012 and “with no effect” in the assay with raly_human RALY, Q9UKM9. As to MASNDYTQQATQSYGAYPTQPGQGYSQQSSQPYGQQSYSGYSQSTDTSGYGQSSYSSYGQSQNTGYGTQSTPQGYGSTGGYGSSQSSQSSYGQQSSYPGYGQQPAPSSTSGSYGSSSQSSSYGQPQSGSYSQQPSYGGQQQSYGQQQSYNPPQGYGQQNQYNSSSGGGGGGGGGGNYGQDQSSMSSGGGSGGGYGNQDQSGGGGSGGYGQQDRGGRGRGGSGGGGGGGGGGYNRSSGGYEPRGRGGGRGGRGGMGGSDRGGFNKFGGPRDQGSRHDSEQDNSDNNTIFVQGLGENVTIESVADYFKQIGIIKTNKKTGQPMINLYTDRETGKLKGEATVSFDDPPSAKAAIDWFDGKEFSGNPIKVSFATRRADFNRGGGNGRGGRGRGGPMGRGGYGGGGSGGGGRGGFPSGGGGGGGQQRAGDWKCPNPTCENMNFSWRNECNQCKAPKPDGPGGGPGGSHMGGNYGDDRRGGRGGYDRGGYRGRGGDRGGFRGGRGGGDRGGFGPGKMDSRGEHRQDRRERLY [P525L], the “effect of a mutation on the interaction” value is on record as “with no effect” with raly_mouse Raly, Q64012 and “with no effect” with raly_human RALY, Q9UKM9.
